Laboratory results: US20180280488A1, “Methods and Compositions for Binding Complement C3 for Targeting of Immune Cells” (University of Alaska Anchorage, priority 2017, published 2018)

Key:
[1] = test system: OVA-specific T cell hybridoma D011; test: T cell activation: BMDC co-culture with OVA-specific reporter T cell hybridoma D011 (GFP); assay type: cell-based, mice; settings: BMDC 24 hours with OVA treatments, D011 T cells 24 hours; mean±standard error (n=3)
Description: Bone marrow was extracted from adult BALB/c mice. Mice were euthanized and femur and humerus bones removed and cleaned of tissue. Bones were kept in RPMI in a sterile petri dish, and bone marrow was flushed from bones using RPMI and a 1 mL insulin syringe. Extracted bone marrow was filtered through a 100 μm nylon mesh filter and rinsed twice in RPMI. Bone marrow cells were then counted and plated at a density of 2×10^6 cells in culture medium (RPMI, 10% heat inactivated FBS, 1% penicillin/streptomycin). Granulocyte-macrophage colony stimulating factor (GM-CSF) and Interleukin-4 (IL-4) were added to the culture medium at 40 ng/mL and 20 ng/mL, respectively. Cells were incubated at 37° C. and medium with GM-CSF and IL-4 was replenished after 3 days. On day 6, non-adherent and loosely-adherent cells were harvested by pipetting and re-suspended in culture media.
10 μL of OPSS-liposomes containing OVA, control-liposomes containing OVA and free OVA matching the amount encapsulated in OPSS-liposomes (see liposome preparation) were incubated in 10 μL C3-positive and -negative serum for 1 hour at room temperature prior to addition to 80 μL of bone marrow-derived dendritic cells in RPMI (1% penicillin/streptomycin) containing 1.6×10^5 cells per well in a U-bottom plate. […] The co-cultures were then analyzed for T cell activation (GFP expression) by fluorescence microscopy and flow cytometry.

[2] = Liver toxicity assays (plasma AST, ALT); assay type: in vivo; settings: A20-OVA mice, 4 days after last injection
Description: Mice were euthanized following therapy, 4 days after the last injection and blood was collected via cardiac puncture and placed in heparinized tubes. Plasma was separated from blood via centrifugation at 500×g for 15 minutes and frozen at −80° C. for subsequent analysis. Red blood cell lysis buffer (eBioscience) was added to the remaining blood for 10 minutes at room temperature. Samples were then prepared for flow cytometry analysis or frozen in culture media supplemented with 10% dimethyl sulfoxide for later use.
Mouse plasma levels of aspartate transaminase (AST) and alanine transaminase (ALT) were determined using kits purchased from BioAssay Systems (Hayward, Calif., USA). Plasma was collected from mice as previously described. Plasma samples were diluted 1:1 in assay buffer prior to addition to a Falcon flat-bottom microtest 96-well assay plate, black/clear bottom (Becton Dickinson Labware, Franklin Lakes, N.J., USA). Absorbance was measured at 340 nm at 5 and 10 minutes using a BioTek Synergy HT plate reader, and enzyme activity was calculated according to the protocol.

Molecule | T cell activation (GFP expression) [1] [%] | ALT in mouse plasma ([2]; normal range 15-84 U/L) [U/L] | AST in mouse plasma ([2]; normal range 54-298 U/L) [U/L]
ovalbumin [free OVA, Non-encapsulated ovalbumin, model tumor antigen, matched to the encapsulated amount] | 14.4±0.8 |  | 
ovalbumin (protein, UniProt P01012 2-386, looked up, Non-encapsulated ovalbumin, model tumor antigen, matched to the encapsulated amount) Ovalbumin: GSIGAASMEFCFDVFKELKVHHANENIFYCPIAIMSALAMVYLGAKDSTRTQINKVVRFDKLPGFGDSIEAQCGTSVNVHSSLRDILNQITKPNDVYSFSLASRLYAEERYPILPEYLQCVKELYRGGLEPINFQTAADQARELINSWVESQTNGIIRNVLQPSSVDSQTAMVLVNAIVFKGLWEKAFKDEDTQAMPFRVTEQESKPVQMMYQIGLFRVASMASEKMKILELPFASGTMSMLVLLPDEVSGLEQLESIINFEKLTEWTSSNVMEERKIKVYLPRMKMEEKYNLTSVLMAMGITDVFSSSANLSGISSAESLKISQAVHAAHAEINEAGREVVGSAEAGVDAASVSEEFRADHPFLFCIKHIATNAVLFFGRCVSP |  | 51.2±34.7 | 110.4±25.6
